Source: US20260167703A1 (Takeda / Millennium, published 2026)
Where a chain is given by its changes, count along the chain named.

B1: DENV2-3H11 (antibody, V domains shown)
VH: QSVEESGGRLVTPGTPLTLTCTVSGFSLINYDMSWIRQAPGKGLEWIGMVSGGGHTNYASWANGRFTISKTSSTTMDLKITSPTTEDTASYFCGRWDIWGPGTLVTVSL
VL: AVVVTQTASPVSAAVGGTVTISCQSSQSVYDDNWLAWYQQKPGQPPKQLIYRASRLASGVPSRFSGTGSGTQFTLTISGVQCDDAATYYCLGGYVDDGDTTFGGGTEVVVK
notes: also called DENV2-3H111
B2: DENV4-10A11 (antibody, V domains shown)
VH: QSVEESGGRLVTPGTPLTLTCTVSGINLSFYAMGWVRQAPGKGLECVGFIDTDNSAYYASWAKGRFTISKTSTTVDLKITSPTTEDTATYFCARSLSSFYDWDAFDPWGPGTLVTVSS
VL: AYDMTQTPASVEVAVGGTVTIKCLASQSISNLLAWYQQKPGQRPKLLIYRASTLASGVPSRFKGSGSGTQFTLTISGVECADAATYYCQQGASNSDIDNAFGGGTEVVVK
notes: also called Clone 10A11; 10A1l
B3: DENV4-8C7 (antibody, V domains shown)
VH: QSVEESGGRLVTPGTPLTLTCTVSGIDLSSYEMGWVRQAPGKGLEWIGIIFPSGTIYYANWAKGRFTISKTSTTVDLKITSPTTEDTATYFCGRHGGSLYLNIWGPGTLVTVSL
VL: AQVLTQTPSPVSAAVGGTVTINCQASQSVYVNRNLAWYQQKPGQPPKVLIYEASKLASGVPSRFKGSGSGTQFTLTISGVQCDDAATYYCQGEFGCSSADCIAFGGGTEVVVK
notes: also called Clone 8C7
B4: DENV4-9G8 (antibody, V domains shown)
VH: QSLEESGGGLVKPGASLTLTCTASGFSFSYRYWMSWVRQAPGKRPEWIACIDTGNGDTYYASRAKGRFTIMKTSSTTVTLQMTSLTVADTATYFCARSDVTLTGYGYGNLWGPGTLVTVSS
VL: DSVMTQTPASVSEPVGGTVTINCQASHNIYNSLAWYQQKPGQPPKLLIYRASTLESGVPSRVKGSGYGTEYTLTISDLECADAATYYCQQYYGGDDDGFGFGGGTEVVVK
notes: also called Clone 9G8
B5: DENV4-7F2 (antibody, V domains shown)
VH: QSVEESGGRLVTPGTPLTLTCTVSGIDLSYYAMGWVRQAPGEGLECIGFIDTGDSAYYASWAKGRFTISKTSSTTVDLKITSPTPEDTATYFCGRSLSSYYDWDAFDPWGPGTLVTVSS
VL: B2 VL with K22N, L24Q, S28T, S30G, N94A, S95N, A100S, E106A
notes: also called Clone 7F2
B6: DENV4-7D5 (antibody, V domains shown)
VH: B3 VH with Y31W, T67A, T71A
VL: B3 VL
notes: also called Clone 7D5
B7: DENV4-5B11 (antibody, V domains shown)
VH: QSVEESGGRLVTPGTPLTLTCTVSGFSLSDSAMSWVRQAPGKGLEWIGYIYAGSGTTYYASWAKGRFTISKTSTTVDLKITSPTTEDTATYFCARATAYVGYGYGDDTFDPWGPGTLVTVSS
VL: AYDMTQTPASVEVAVGGTVTIKCQASQSISSYLSWYQQKPGQRPKLLIYRASTLASGVSSRFKGSGSGTEFTLTISGVQCDDAATYYCQQGYSNSDVDNVFGGGTEVVVK
notes: also called Clone 5B11
B8: DENV4-7G4 (antibody, V domains shown)
VH: B7 VH with D30S, S31C, S34T, A52V, G53D, G55D, K71T, K79R, A96T, Y102G
VL: DVVMTQTPASVEAAVGGTVTINCQASQNINSYLSWYQQKPGQRPKLLIYRAFTLASGVSSRFKGSGSGTQFTLTISGVECADAATYYCQQGYSFSGVDNVFGGGTEVVVK
notes: also called Clone 7G4
B9: DENV2-5F4 (antibody, V domains shown)
VH: QSVEESGGRLVKPDETLTLTCTVSGIDLSNTVISWVRQAPGKGLEYIGMITPSGSAYSATWAKGRVTISRTSTTVDLKIASPTTEDTATYFCARIAWSTGRNDIWGPGTLVTVSS
VL: AAVLTQTPPSVSAAVGGTVTIKCQSSQSVYNNNALSWYQQKPGQPPKLLIYQASKLSSGVSSRFSGSGSGTHFTLTISGVQCDDAATYYCLGIYDDDVDNTFGGGTEVVVG
B10: DENV2-8D8 (antibody, V domains shown)
VH: QSLEESGGRLVKPDETLTLTCTVSGIDLSSTIITWVRQAPGKGLEYIGIIGSSGSIISANWAKGRFTISRTSTTVDLKMTSLTTEDTATYFCARIAWSTGRNDIWGPGTLVTVSS
VL: B9 VL with K22S, Q52L, K55N, S57A, S61P, H72Q, Y89H, I93V, Y94D, G111K

Molecular target: T1, JE VLP (Japanese encephalitis virus, UniProt P27395)
T1 construct: virus-like particle; also called Japanese Encephalitis Virus VLP
Experiment: Luminex bead assay (antigen on MagPlex beads, MFI)

T1 sequence (P27395 128-794 limits assumed): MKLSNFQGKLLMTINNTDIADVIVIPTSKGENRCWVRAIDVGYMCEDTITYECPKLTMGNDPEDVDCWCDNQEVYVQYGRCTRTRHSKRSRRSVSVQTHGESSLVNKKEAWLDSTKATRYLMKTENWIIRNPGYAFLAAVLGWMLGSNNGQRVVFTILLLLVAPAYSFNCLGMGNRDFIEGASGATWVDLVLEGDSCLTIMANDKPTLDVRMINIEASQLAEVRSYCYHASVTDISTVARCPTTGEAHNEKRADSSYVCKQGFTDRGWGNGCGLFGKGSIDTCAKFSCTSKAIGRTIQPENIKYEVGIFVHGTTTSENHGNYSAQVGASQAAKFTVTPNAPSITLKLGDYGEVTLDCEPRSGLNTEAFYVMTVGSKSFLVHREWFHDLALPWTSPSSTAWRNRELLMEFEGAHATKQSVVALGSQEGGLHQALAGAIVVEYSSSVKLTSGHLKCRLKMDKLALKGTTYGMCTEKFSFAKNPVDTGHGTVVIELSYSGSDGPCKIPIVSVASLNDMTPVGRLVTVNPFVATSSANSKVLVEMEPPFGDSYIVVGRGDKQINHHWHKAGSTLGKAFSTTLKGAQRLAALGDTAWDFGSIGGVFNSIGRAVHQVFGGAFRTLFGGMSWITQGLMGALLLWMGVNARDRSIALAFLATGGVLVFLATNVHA

Row | Binder | binding result
1 | B1 | no binding (tested: 10000 ng/mL)

Molecular target: T2, DENV-4 VLP (Dengue virus serotype 4, strain …, UniProt P09866 114-774)
Experiment: Luminex bead assay (antigen on MagPlex beads, MFI)

Row | Binder | binding result
2 | B1 | no binding (tested: 10000 ng/mL)

Molecular target: T1, JE VLP
Experiment: Luminex bead assay (antigen on MagPlex beads, MFI)
Remark: another data set of the same source

Row | Binder | binding result
3 | B2 | no binding (tested: 10000 ng/mL)
4 | B3 | no binding (tested: 10000 ng/mL)
5 | B4 | no binding (tested: 10000 ng/mL)

Molecular target: T2, DENV-4 VLP
Experiment: not given

Row | Binder | Response (nm) | koff [s⁻¹]
6 | B5 | 2.32 | 3.67e-05
7 | B2 | 2.17 | 4.17e-05
8 | B6 | 2.45 | 3.56e-05
9 | B3 | 2.38 | 3.32e-05
10 | B4 | 0.137 | < 2e-05
11 | B7 | 2.39 | 2.36e-05
12 | B8 | 2.16 | < 2e-05

Molecular target: T2, DENV-4 VLP
Experiment: Luminex, VLP-coupled beads

Row | Binder | EC50 [µg/mL]
13 | B5 | 0.0407
14 | B2 | 0.0236
15 | B6 | 0.0232
16 | B3 | 0.0176
17 | B4 | 0.0713
18 | B7 | 0.0192
19 | B8 | 0.0214

Molecular target: T1, JE VLP
Experiment: Luminex bead assay (antigen on MagPlex beads, MFI)
Remark: another data set of the same source

Row | Binder | binding result
20 | B5 | no binding (tested: 10000 ng/mL)
21 | B6 | no binding (tested: 10000 ng/mL)
22 | B7 | no binding (tested: 10000 ng/mL)
23 | B8 | no binding (tested: 10000 ng/mL)

Molecular target: T1, JE VLP
Experiment: Luminex bead assay (antigen on MagPlex beads, MFI)
Remark: another data set of the same source

Row | Binder | binding result
24 | B9 | no binding (tested: 10000 ng/mL)
25 | B10 | no binding (tested: 10000 ng/mL)

Molecular target: T2, DENV-4 VLP
Experiment: Luminex bead assay (antigen on MagPlex beads, MFI)
Remark: another data set of the same source

Row | Binder | binding result
26 | B9 | no binding (tested: 10000 ng/mL)
27 | B10 | no binding (tested: 10000 ng/mL)
